Data on one molecule can be found in publication PMC7596997.

The experiment concerns the target S. cerevisiae AAC2, P18239. Kind of experiment: binding of [35S]-labeled AAC2 to isolated mitochondria. Particulars: chain shown with the change, AAC2 lysate preincubated with apyrase, n = 3, read off a plot.

S. cerevisiae AAC2, P18239, sequence (P18239 whole entry, the tested form may be a part): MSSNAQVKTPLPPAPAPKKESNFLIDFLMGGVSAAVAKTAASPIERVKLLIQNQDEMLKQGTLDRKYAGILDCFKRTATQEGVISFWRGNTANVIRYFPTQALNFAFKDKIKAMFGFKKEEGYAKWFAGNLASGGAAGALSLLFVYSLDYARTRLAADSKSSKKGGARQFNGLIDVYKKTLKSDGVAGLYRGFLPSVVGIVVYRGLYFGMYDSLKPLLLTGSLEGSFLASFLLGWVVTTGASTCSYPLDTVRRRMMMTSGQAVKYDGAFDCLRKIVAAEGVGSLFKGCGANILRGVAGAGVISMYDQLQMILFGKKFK

B1: Tom70 in the outer membrane of isolated yeast mitochondria (wild type), P07213 C141A (protein)
chain: MKSFITRNKTAILATVAATGTAIGAYYYYNQLQQQQQRGKKNTINKDEKKDTKDSQKETEGAKKSTAPSNPPIYPVSSNGEPDFSNKANFTAEEKDKYALALKDKGNQFFRNKKYDDAIKYYNWALELKEDPVFYSNLSAAYVSVGDLKKVVEMSTKALELKPDYSKVLLRRASANEGLGKFADAMFDLSVLSLNGDFNDASIEPMLERNLNKQAMSKLKEKFGDIDTATATPTELSTQPAKERKDKQENLPSVTSMASFFGIFKPELTFANYDESNEADKELMNGLSNLYKRSPESYDKADESFTKAARLFEEQLDKNNEDEKLKEKLAISLEHTGIFKFLKNDPLGAHEDIKKAIELFPRVNSYIYMALIMADRNDSTEYYNYFDKALKLDSNNSSVYYHRGQMNFILQNYDQAGKDFDKAKELDPENIFPYIQLACLAYRENKFDDCETLFSEAKRKFPEAPEVPNFFAEILTDKNDFDKALKQYDLAIELENKLDGIYVGIAPLVGKATLLTRNPTVENFIEATNLLEKASKLDPRSEQAKIGLAQMKLQQEDIDEAITLFEESADLARTMEEKLQAITFAEAAKVQQRIRSDPVLAKKIQETLAKLREQGLM
For B1, the other: bound protein, % of control (same mitochondria without NEM, 12 min) was 95 % of control (mitochondria pretreated with 2 mM NEM, control = untreated Tom70C141A mitochondria at 12 min) and 100 % of control (no NEM, this point is the normalisation control (100%), not a comparison with wild type).
